Experimental data reported in patent US20150023979A1 (VALDOSPAN, published 2015).

T1: HPV56 E7 protein, recombinant (His-TEV-E7 fusion from E. coli) (Human Papilloma Virus type 56 (HPV56), UniProt P36833 1-105, CKII phosphorylation of the consensus site serines in the antigen preparation of Example 2)
T1 construct: mature; also called VE7_HPV56; not shown: N-terminal 6x Histidine tag and TEV cleavage site of the vector
T1 sequence: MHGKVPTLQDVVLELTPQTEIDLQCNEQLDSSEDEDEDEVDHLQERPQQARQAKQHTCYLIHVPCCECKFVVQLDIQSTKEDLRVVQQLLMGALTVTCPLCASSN

T2: HPV39 E7 protein, recombinant (His-TEV-E7 fusion from E. coli) (Human Papilloma Virus type 39 (HPV39), UniProt P24837 1-109, CKII phosphorylation of the consensus site serine in the antigen preparation of Example 2)
T2 construct: mature; also called VE7_HPV39; not shown: N-terminal 6x Histidine tag and TEV cleavage site of the vector
T2 sequence: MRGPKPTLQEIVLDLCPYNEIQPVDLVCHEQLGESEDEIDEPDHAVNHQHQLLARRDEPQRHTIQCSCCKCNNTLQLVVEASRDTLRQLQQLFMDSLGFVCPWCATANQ

T3: HPV16 E7 protein, recombinant (His-TEV-E7 fusion from E. coli) (Human Papilloma Virus type 16 (HPV16), UniProt P03129 1-98, CKII phosphoserines at E7 S31 and S32 (chain 1 pos 49 and 50) in the antigen preparation of Example 2, written S; biotin on primary amines (Sulfo-NHS-LC Biotin) in the SPR assay.)
T3 construct: also called VE7_HPV16
T3 sequence: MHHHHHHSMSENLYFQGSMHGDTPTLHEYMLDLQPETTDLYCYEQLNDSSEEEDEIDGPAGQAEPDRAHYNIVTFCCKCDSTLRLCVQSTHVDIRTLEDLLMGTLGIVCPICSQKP

T4: HPV35 E7 protein, recombinant (His-TEV-E7 fusion from E. coli) (Human Papilloma Virus type 35 (HPV35), UniProt P27230 1-99, CKII phosphorylation of the consensus site serines in the antigen preparation of Example 2)
T4 construct: mature; also called VE7_HPV35; not shown: N-terminal 6x Histidine tag and TEV cleavage site of the vector
T4 sequence: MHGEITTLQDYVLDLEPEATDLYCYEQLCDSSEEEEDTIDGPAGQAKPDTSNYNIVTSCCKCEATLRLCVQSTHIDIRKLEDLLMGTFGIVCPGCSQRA

T5: HPV58 E7 protein, recombinant (His-TEV-E7 fusion from E. coli) (Human Papilloma Virus type 58 (HPV58), UniProt P26557 1-98, CKII phosphorylation of the consensus site serines in the antigen preparation of Example 2)
T5 construct: mature; also called VE7_HPV58; not shown: N-terminal 6x Histidine tag and TEV cleavage site of the vector
T5 sequence: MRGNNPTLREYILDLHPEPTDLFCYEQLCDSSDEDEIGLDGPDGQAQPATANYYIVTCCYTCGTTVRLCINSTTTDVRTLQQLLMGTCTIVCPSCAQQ

T6: HPV51 E7 protein, recombinant (His-TEV-E7 fusion from E. coli) (Human Papilloma Virus type 51 (HPV51), UniProt P26558 1-101, CKII phosphorylation of the consensus site serines in the antigen preparation of Example 2)
T6 construct: mature; also called VE7_HPV51; not shown: N-terminal 6x Histidine tag and TEV cleavage site of the vector
T6 sequence: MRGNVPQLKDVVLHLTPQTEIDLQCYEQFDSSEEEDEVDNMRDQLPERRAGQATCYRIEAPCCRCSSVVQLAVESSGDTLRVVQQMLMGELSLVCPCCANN

T7: HPV31 E7 protein, recombinant (His-TEV-E7 fusion from E. coli) (Human Papilloma Virus type 31 (HPV31), UniProt P17387 1-98, CKII phosphorylation of the consensus site serines in the antigen preparation of Example 2)
T7 construct: mature; also called VE7_HPV31; not shown: N-terminal 6x Histidine tag and TEV cleavage site of the vector
T7 sequence: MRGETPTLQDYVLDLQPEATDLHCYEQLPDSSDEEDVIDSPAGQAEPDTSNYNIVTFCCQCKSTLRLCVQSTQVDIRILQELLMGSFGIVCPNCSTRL

T8: HPV52 E7 protein, recombinant (His-TEV-E7 fusion from E. coli) (Human Papilloma Virus type 52 (HPV52), UniProt P36831 1-99, CKII phosphorylation of the consensus site serines in the antigen preparation of Example 2)
T8 construct: mature; also called VE7_HPV52; not shown: N-terminal 6x Histidine tag and TEV cleavage site of the vector
T8 sequence: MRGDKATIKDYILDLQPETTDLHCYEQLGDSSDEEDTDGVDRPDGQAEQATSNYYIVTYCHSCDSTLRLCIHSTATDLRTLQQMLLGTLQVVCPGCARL

B1: ACAB161 (antibody, IgG2a, V domains shown)
VH: EVMLVESGGGLVKPGGSLKLSCAASGFTFSRYTMSWVRQTPEKRLEWVATISSGGTNTNYTDSVKGRFTISRDNAKNNLYLQMSSLRSEDTALYYCTRGVRRGDGYAMDYWGQGTSVTVSS
VL: DIVLTQAAPSVPVTPGESVSISCRSTKSLLHSNGNTYLYWFLQRPGQSPQALIYRTSNLASGVPDRFSGSGSGTAFTLRISRVEAEDVGVYYCMQHLEYPLTFGAGTKLELKR
notes: the printed entries run on into the first residues of the constant domains; also called HPV16E7 IgG2a antibody ACAB161
B2: ACAB164 (antibody, V domains shown)
VH: EVQLQQSGLALVQPGASVKISCRTSGYTFTEYTLHWVKQSHGKSLEWIGGINPNNGSPKYNQKFKGKATLTVDKSSSTAYMELRSLTSEDSAVYYCARLDINSFFDYWGQGTTLTVSS
VL: DVVMTQSPLSLPVSLGDQASISCRSSQSLVHSNGNTYLQWYLQKPGQSPKLLIYKLSNRFSGVPDRFSGSGSGTDFTLKISRVEAEDLGVYSCSQTTHVPPTFGGGTKLEIKR
notes: the printed entries run on into the first residues of the constant domains; also called HPV16E7 IgG2a antibody ACAB164
B3: ACAB452 (antibody, IgG1, V domains shown)
VH: DVQLQESGPGLVKPSQSLSLTCTVTGYSITSDYAWNWIRQFPGNKLEWVGYITYSGSTNYNPSLKSRISITRDTSKNQFFLQFNSVTSEDTATYFCARSWFAYWGQGTLVTVSS
VL: DIVMTQTPLSLPVSLGDQASISCRSSQSLVHSNGNTYLHWFLQKPGQSPKLLIYKVSNRFSGVPDRFSGSGSGTDFTLKISRVEAEDLGVYFCLQSAHVPLTFGAGTKLELTR
notes: also called HPV45E7 IgG1 antibody ACAB452

Assays:
[1] = molecular target: T1, HPV56 E7 protein, recombinant …; assay: ELISA and dot-blot, semiquantitative crossreactivity
Method: (§1) Using ELISA and dot-blot techniques semiquantitative crossreactivities of the isolated mAbs was analysed. For this various mAbs were tested against the accepted high risk species.

[2] = molecular target: T2, HPV39 E7 protein, recombinant …; assay: as above
Method: as §1

[3] = molecular target: T3, HPV16 E7 protein, recombinant …; assay: SPR (BIAcore X100), biotin-E7 on streptavidin SA chip, antibody as analyte, bivalent analyte fit, 25 C
[4] = molecular target: T4, HPV35 E7 protein, recombinant …; assay: ELISA and dot-blot, semiquantitative crossreactivity (++ strong positive)
Method: as §1

[5] = molecular target: T5, HPV58 E7 protein, recombinant …; assay: as above
Method: as §1

[6] = molecular target: T6, HPV51 E7 protein, recombinant …; assay: as above
Method: as §1

[7] = molecular target: T1, HPV56 E7 protein, recombinant …; assay: as above
Method: as §1

[8] = molecular target: T2, HPV39 E7 protein, recombinant …; assay: as above
Method: as §1

[9] = molecular target: T5, HPV58 E7 protein, recombinant …; assay: ELISA, HPV58E7 immobilised on polystyrene plates in 3-fold dilution steps, detected with ACAB452
[10] = molecular target: T7, HPV31 E7 protein, recombinant …; assay: ELISA, HPV31E7 immobilised on polystyrene plates in 3-fold dilution steps, detected with ACAB452; no concentrations printed on the X axis
[11] = molecular target: T8, HPV52 E7 protein, recombinant …; assay: ELISA, HPV52E7 immobilised on polystyrene plates in 3-fold dilution steps, detected with ACAB452

Row | Binder | binding result [1] | binding result [2] | Kd [3] [nM] | kon [3] [M⁻¹ s⁻¹] | binding result [4] | binding result [5] | binding result [6] | binding result [7] | binding result [8] | binding result [9] | binding result [10] | binding result [11]
1 | B1 | no binding | no binding | 3.38 | 58400 | – | – | – | – | – | – | – | –
2 | B2 | no binding | no binding | 0.052 | 261000 | binds | binds | – | – | – | – | – | –
3 | B3 | – | – | – | – | – | – | binds | binds | binds | no binding (tested: 800 nM immobilised antigen (per legend)) | binds | no binding (tested: 800 nM immobilised antigen (per legend))
